Test results: PMC9428852, “The N-linker region of hERG1a upregulates hERG1b potassium channels” (The Journal of Biological Chemistry, 2022)

Target: T1, 6xHis-hERG1a N1–354-FLAG (human, UniProt Q12809 1-354)
T1 construct: Plasmid made commercially (BioInnovatise); also called hERG1a N-terminal region; source: bacteria, M15 cells, purified (nickel column); not shown: His6, N-terminal, kept; FLAG, C-terminal, kept
Assay: pull-down; GST or GST fusion protein bound to glutathione beads, incubated with 6xHis fusion protein in buffer S (50 mM Tris pH 8, 150 mM NaCl, 25 mM imidazole, 0.25% Tween-20) with 0.5% CHAPS, overnight at 4 °C; washed; Western blot with anti-FLAG
Settings: both partners purified

T1 sequence (Q12809 1-354): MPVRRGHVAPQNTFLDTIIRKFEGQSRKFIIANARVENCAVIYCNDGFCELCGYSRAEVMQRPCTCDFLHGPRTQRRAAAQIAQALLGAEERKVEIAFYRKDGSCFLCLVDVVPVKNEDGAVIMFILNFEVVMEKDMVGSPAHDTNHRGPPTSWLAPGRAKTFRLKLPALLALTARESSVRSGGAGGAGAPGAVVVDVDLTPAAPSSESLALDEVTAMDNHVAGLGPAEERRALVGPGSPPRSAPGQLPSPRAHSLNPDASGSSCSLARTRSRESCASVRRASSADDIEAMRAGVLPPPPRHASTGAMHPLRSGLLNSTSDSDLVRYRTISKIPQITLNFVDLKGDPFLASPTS

B1: GST-hERG1b N1–56 (domain or fragment, human, UniProt Q12809-2 1-56, looked up)
chain: MAAPAGKASRTGALRPRAQKGRVRRAVRISSLVAQEVLSLGADVLPEYKLQAPRIH
notes: hERG1b (KCNH2 isoform 1b), human, N-terminal region residues 1-56; numbers count on: hERG1b; Plasmid made commercially (BioInnovatise); also called hERG1b N-terminal region; GST–hERG1b N-terminal region; not shown: GST, N-terminal, kept
B1: binds.
